Reference: patent US20260125472A1 (HEFEI TG IMMUNOPHARMA, published 2026)
Where a chain is given by its changes, count along the chain named.

B1: Cross303 (antibody, human IgG1, kappa, V domains shown)
VH: EVQLLESGGGLVQPGGSLKLSCAASGFTFNTYAMNWVRQAPGKGLEWVARIRSKYNNYATYYADSVKDRFTISRDDSKNTAYLQMNNLKTEDTAVYYCVRHGMFGNSYVSWFAYWGQGTLVTVSS
VL: ELVVTQEPSLTVSPGGTVTLTCRSSTGAVTTSNYANWVQQKPGQAPRGLIGGTNKRAPGTPARFSGSLLGGKAALTLSGVQPEDEAEYYCALWYSNLWVFGGGTKLTVLR
B2: Cross308 (antibody, human IgG1, kappa, V domains shown)
VH: B1 VH with M103N, S107P
VL: B1 VL
B3: Cross307 (antibody, human IgG1, kappa, V domains shown)
VH: B1 VH with M103N, S107E
VL: B1 VL
B4: Cross309 (antibody, human IgG1, kappa, V domains shown)
VH: B1 VH with M103N, S107V
VL: B1 VL
B5: Cross310 (antibody, human IgG1, kappa, V domains shown)
VH: B1 VH with M103N, S107Y
VL: B1 VL
B6: Cross314 (antibody, human IgG1, kappa, V domains shown)
VH: B1 VH with M103N, V109S
VL: B1 VL
B7: Cross311 (antibody, human IgG1, kappa, V domains shown)
VH: B1 VH with M103N, Y108E
VL: B1 VL
B8: Cross312 (antibody, human IgG1, kappa, V domains shown)
VH: B1 VH with M103N, V109H
VL: B1 VL
B9: Cross318 (antibody, human IgG1, kappa, V domains shown)
VH: B1 VH with M103N, Y114M
VL: B1 VL
B10: Cross313 (antibody, human IgG1, kappa, V domains shown)
VH: B1 VH with M103N, V109Q
VL: B1 VL
B11: Cross316 (antibody, human IgG1, kappa, V domains shown)
VH: B1 VH with M103N, A113L
VL: B1 VL

molecular target: T1, CD3E&D protein (UniProt P04234 22-105); test: ELISA, coated CD3E&D protein, OD450 [panel A]
T1 construct: Purchased from Acro; also called CD3 E&D antigens; CD3E&D antigen protein
Protocol: (§1) In this example, the binding properties of the parental antibody Cross3 and the CD3 affinity-reduced antibody (the production method and the amino acid sequences of the heavy and light chains were shown in Example 1) were detected by ELISA. The CD3E&D protein was coated onto a 96-well plate by the inventors, and the strength of the signal after the addition of the antibody was used to determine the binding properties of the antibody and CD3E&D.
(§2) CD3E&D protein (purchased from Acro) was diluted to 2 μg/ml with PBS buffer, added to a 96-well plate at a volume of 100 μL/well, and placed at 4° C. overnight. The PBS buffer in the 96-well plate was aspirated, and the plate was washed 6 times with PBST (pH 7.2 PBS containing 0.1% Tween 20) buffer. Then, 200 μL/well PBS/10% BSA was added and incubated at 37° C. for 2 h for blocking. The blocking solution was removed, and the plate was washed six times with PBST. Then, the to-be-tested antibodies serially diluted with PBST/0.05% BSA, Cross3, Cross303, Cross307, Cross308, Cross309, Cross310, Cross311, Cross312, Cross313, Cross314, Cross316, Cross317, Cross318, Cross323, Cross325, Cross326, and control IgG1 (purchased from Bio-Tech) were added at 100 μL/well, and incubated at 37° C. for 1 h. The reaction system was removed, and the plate was washed 6 times with PBST. Then, the cells were incubated at 37° C. for 1 h with HRP (horseradish peroxidase)-labeled anti-human secondary antibody (Fab specific) (purchased from Sigma) serially diluted with PBST/0.05% BSA at 100 μL/well. The plate was washed six times with PBST, TMB (tetramethylbenzidine) was added at 80 μL/well and incubated at room temperature for 3 min. 4 M sulfuric acid was added at 80 μL/well to terminate the reaction. The absorbance was read at 450 nm using a microplate reader.

T1 sequence (chain, as listed by the source limits assumed, chain 1 of 2): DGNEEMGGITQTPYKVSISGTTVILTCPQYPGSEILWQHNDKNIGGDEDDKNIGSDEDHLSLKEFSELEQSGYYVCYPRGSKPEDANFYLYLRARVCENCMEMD
T1 sequence (P04234 22-105 limits assumed, chain 2 of 2): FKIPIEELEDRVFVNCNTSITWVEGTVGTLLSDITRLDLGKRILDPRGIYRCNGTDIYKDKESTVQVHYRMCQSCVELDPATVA

EC50 (read off the curve) [µg/mL] | Binder
~0.03 | B1
~0.03 | B2
~0.03 | B3
~0.03 | B4
~0.03 | B5

molecular target: T1, CD3E&D protein; test: ELISA, coated CD3E&D protein, OD450 [panel B]
Protocol: as §1, §2

EC50 (read off the curve) [µg/mL] | Binder
~0.03 | B6
~0.03 | B7
~0.03 | B8
~0.03 | B9
~0.03 | B10
~0.03 | B11

molecular target: T2, CD3 on CD8 T cells (Homo sapiens (Human), UniProt P07766 23-207); test: flow cytometry, CD8 T cells in PBMCs, binding ratio % [panel A]
T2 construct: Native CD3 complex on CD8 T cells among PBMCs; also called T cells (PBMCs gated with anti-human CD8 antibody)
Protocol: PBMCs were diluted with PBS to 2×10⁶/mL and added to a 1.5 ml EP tube at a volume of 100 μL/tube, 10 μL/tube of goat serum was added thereto and incubated at 4° C. for 30 min for blocking. […] 1 mL of PBS was added to the EP tube, followed by centrifugation at 3500 rpm for 5 min at 4° C. The supernatant was discarded, and the cells were washed again with PBS. After centrifugation, the supernatant was discarded, and the cells were resuspended with 100 μl/tube PBS. 1 μl/tube Alexa-647-labeled goat anti-human secondary antibody (purchased from Jackson lab) and 0.5 μl/tube PerCP-Cy5.5-labeled anti-human CD8 antibody were added and incubated at 4° C. in the dark for 30 min. The cells were washed twice with PBS, and the supernatant was discarded after centrifugation. The cells were resuspended with […] of PBS and assayed using the flow cytometry.

T2 sequence (P07766 23-207 limits assumed): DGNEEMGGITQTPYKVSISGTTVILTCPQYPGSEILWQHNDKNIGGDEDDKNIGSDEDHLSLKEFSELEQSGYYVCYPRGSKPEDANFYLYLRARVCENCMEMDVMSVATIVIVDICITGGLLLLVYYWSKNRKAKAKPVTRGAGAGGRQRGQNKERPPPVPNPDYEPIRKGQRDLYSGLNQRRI

EC50 (read off the curve) [µg/mL] | Binder
~0.4 | B6
~0.3 | B7
~0.4 | B4
~0.3 | B8
~0.3 | B5
~0.3 | B10
~0.3 | B11

molecular target: T1, CD3E&D protein; test: SPR (Biacore 8K), antibody on CM5 chip, CD3 E&D antigen as analyte; set-up: Fold change: reference not given here
Protocol: In a Biacore 8K (Cytiva) system, the antibody was diluted to 10 μg/mL in HBS-EP running buffer and coupled to a CM5 chip (Cytiva) at a flow rate of 10 μL/min.

Fold change | Kd [nM] | koff [s⁻¹] | kon [M⁻¹ s⁻¹] | Binder
12.7 | 2.09 | 0.0991 | 4.75e+07 | B1
11.8 | 1.95 | 0.0209 | 1.07e+07 | B2
21 | 3.47 | 0.00473 | 1.36e+06 | B3
26.5 | 4.37 | 0.00887 | 2.03e+06 | B6
27.6 | 4.55 | 0.00959 | 2.11e+06 | B7
11.1 | 1.83 | 0.0124 | 6.76e+06 | B4
21.2 | 3.5 | 0.0107 | 3.05e+06 | B8
16.8 | 2.77 | 0.00613 | 2.22e+06 | B5
20.1 | 3.32 | 0.0056 | 1.69e+06 | B9
11.6 | 1.92 | 0.00567 | 2.96e+06 | B10
20.8 | 3.43 | 0.00249 | 728000 | B11
